# Results published in the supplement of paper PMC10724198.
# ± gives the standard deviation of the averaged measurements.
# Test system: Saccharomyces cerevisiae
# Assay: protein stability index of tFT-peptide fusion (C-terminal peptide) (PSI (0-1 scale)); higher = more stable (slower turnover)
# Conditions: genetic background: wild type; temperature: 30 C
# Protocol: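 Multiplexed protein stability (MPS) profiling in S. cerevisiae. Random 12-aa peptides (tFT-X12 library) are fused to the C-terminus of a sfGFP-mCherry tandem fluorescent timer, after mCherry and a GGGS linker. Cells are FACS-sorted into 8 mCherry/sfGFP bins and deep-sequenced. The protein stability index (PSI) is the read-weighted bin average, scaled from 0 (unstable) to 1 (stable). Only peptides with >10 reads are reported; cells were grown at 30 °C in SC-His with glucose.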
# 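Also: PSI is a weighted mean of sequencing reads over stability bins, variants kept only with over 10 reads, mCherry proximal and sfGFP distal, peptide attached via GGGS linker.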
row,Sequence,protein stability index
1,AADVALQFKPRT,0.658 ± 0.027
2,AAFHSSSAFFFN,0.718 ± 0.019
3,AAGAGAPRRPLL,0.683 ± 0.02
4,AAGGASRHLSGS,0.71 ± 0.09
5,AAIVVRLCSLLR,0.593 ± 0.0091
6,AALSNRGIHWWK,0.732 ± 0.018
7,AAPGMIFRDPAQ,0.739 ± 0.18
8,AAPPPRRPCPPL,0.678 ± 0.038
9,AAQRGSTMARGG,0.704 ± 0.064
10,AARRPARACGGQ,0.632 ± 0.025
11,AAWSGGGAGCWT,0.708 ± 0.041
12,ACLGVSTPSLGI,0.672 ± 0.027
13,ACLIHWVVSGAR,0.677 ± 0.016
14,ACPCTLCMALSR,0.6476 ± 0.0014
15,ACREVAGAPGGL,0.671 ± 0.035
16,ACVRVVRLGCGW,0.616 ± 0.063
17,ACWGCGVGRGEV,0.814 ± 0.12
18,ADKNQQTVNWRR,0.6956 ± 0.0019
19,ADLPALGSCGSY,0.631 ± 0.013
20,ADPPLFYPPSHT,0.69 ± 0.021
21,ADWGSRRPSRCP,0.68915 ± 0.00051
22,AEAFFRIVRTVR,0.721 ± 0.034
23,AEAKAVKSVSVR,0.638 ± 0.042
24,AEARTRYVPRPR,0.686 ± 0.02
25,AEEAEVAGPRHC,0.777 ± 0.18

row,Sequence,protein stability index
1,AEFMRGVFKVSC,0.6816 ± 0.0036
2,AELSTRPPAPPL,0.715 ± 0.096
3,AERSVRGTTPGG,0.632 ± 0.051
4,AETESASRCLHW,0.776 ± 0.026
5,AEWGGSTGGCWG,0.722 ± 0.15
6,AFASVLPSSLSS,0.641 ± 0.085
7,AFDPGLPPRRSD,0.755 ± 0.011
8,AFGRLNTWFCFP,0.719 ± 0.037
9,AFLVGDVFGRLL,0.602 ± 0.016
10,AFMPGLLGDTYE,0.662 ± 0.022
11,AFMVFCRSLLAP,0.684 ± 0.014
12,AFRCGGGPGDFA,0.6513 ± 0.0027
13,AFVLTSRVFFPL,0.721 ± 0.053
14,AFWLPAAVPLIF,0.584 ± 0.022
15,AFYFGQFEFWRC,0.698 ± 0.034
16,AGAATGAGGLQG,0.672 ± 0.037
17,AGCGGIWGVWVL,0.701 ± 0.072
18,AGEERWGGCLTG,0.653 ± 0.021
19,AGGAEAVRRAGG,0.675 ± 0.019
20,AGGGGGTRVHWR,0.682 ± 0.013
21,AGGGPGLEARSL,0.612 ± 0.017
22,AGGGWAVQVGMG,0.684 ± 0.042
23,AGGPGWGALVGA,0.645 ± 0.047
24,AGGRGGGGGGDA,0.663 ± 0.0071
25,AGGSGGGRDRLV,0.694 ± 0.024

row,Sequence,protein stability index
1,AGGSVGEAGSEG,0.649 ± 0.026
2,AGGWLGAEGCGG,0.78 ± 0.033
3,AGICLRSFRCFW,0.672 ± 0.0079
4,AGLGGGARQGAL,0.672 ± 0.024
5,AGLLFDSPPLLV,0.725 ± 0.034
6,AGPPRTAVSPPL,0.675 ± 0.016
7,AGQGSISCWSKD,0.707 ± 0.045
8,AGRGGSPRFVGR,0.657 ± 0.053
9,AGRGRAIGAGFS,0.649 ± 0.054
10,AGRRGVNGGGWG,0.686 ± 0.039
11,AGRRTGSRESEQ,0.612 ± 0.061
12,AGSAGKWCWCGG,0.711 ± 0.039
13,AGSALSSAYTLM,0.703 ± 0.13
14,AGSSFDLGSGYS,0.724 ± 0.083
15,AGSSGVRLSEFP,0.671 ± 0.11
16,AGSYERFSRGHR,0.688 ± 0.034
17,AGVLTRGNCCGG,0.6885 ± 0.005
18,AGVPCLSVPPLG,0.683 ± 0.031
19,AGVTRALSVFLL,0.54 ± 0.043
20,AGWCWVWGVELV,0.687 ± 0.04
21,AGWGGIWGLWVL,0.715 ± 0.11
22,AGYEEWVRDARV,0.73 ± 0.0075
23,AGYENKAENKSV,0.656 ± 0.011
24,AGYGGILRSRGG,0.698 ± 0.059
25,AHMAQQNEQRVK,0.748 ± 0.071

row,Sequence,protein stability index
1,AHQRSRRPKPSR,0.65 ± 0.072
2,AHSPPTRISPTH,0.75 ± 0.097
3,AHVLQRVRLLSR,0.618 ± 0.023
4,AIACYLGLTSYP,0.647 ± 0.021
5,AIAGSLSYCWDD,0.678 ± 0.022
6,AIANIIERFTLL,0.63 ± 0.066
7,AILSDGLTHWGL,0.736 ± 0.058
8,AIPAVRFCRTLR,0.643 ± 0.055
9,AIRENISIRLNC,0.482 ± 0.026
10,AKDSVDYKEGES,0.6602 ± 0.0041
11,AKEERKVIRKMK,0.659 ± 0.063
12,AKETSINKKALI,0.6903 ± 0.0047
13,AKFERRTIGCSA,0.605 ± 0.0042
14,AKKKKKKIKTKH,0.8 ± 0.14
15,AKSCNSVHALRT,0.668 ± 0.11
16,ALASLPPQPHSP,0.665 ± 0.047
17,ALCQEFAALEPR,0.726 ± 0.051
18,ALFKESMLSTCA,0.564 ± 0.022
19,ALLKGASCRTAS,0.696 ± 0.03
20,ALLPTLFNSGAV,0.736 ± 0.015
21,ALPLLPPHSLPP,0.617 ± 0.011
22,ALPLRFSSPGPS,0.659 ± 0.0068
23,ALPPLLLLPASP,0.691 ± 0.0093
24,ALPPPIPHPLFL,0.701 ± 0.019
25,ALPPPLPPPAGP,0.699 ± 0.077

row,Sequence,protein stability index
1,ALQLLNPSLLKY,0.786 ± 0.06
2,ALQVKWRGCLRF,0.733 ± 0.099
3,ALRMVRHCPVNT,0.667 ± 0.029
4,ALSLARVSSPLF,0.707 ± 0.06
5,ALSPAPGTSLMR,0.69 ± 0.016
6,ALSRRPAAGDGP,0.641 ± 0.024
7,ALTGYYNQYRYE,0.745 ± 0.025
8,ALVAGGRGRRLW,0.692 ± 0.087
9,ALVAPAYYWGDV,0.745 ± 0.059
10,ALVRGGYLFFPP,0.663 ± 0.026
11,ALWQADTRSVNN,0.64 ± 0.097
12,ALYISLRELACP,0.548 ± 0.018
13,AMFFAFSRSLMS,0.639 ± 0.026
14,AMLDSPRHLPSA,0.679 ± 0.041
15,ANSGSRSSRVVG,0.643 ± 0.1
16,APAPSPPPPPPD,0.562 ± 0.037
17,APDRPTPSLSSP,0.7057 ± 0.0053
18,APFRVALPGVCG,0.623 ± 0.02
19,APHPYPPTPPAP,0.725 ± 0.014
20,APILLFIEPLPP,0.5631 ± 0.0037
21,APLPHAASSLPA,0.6982 ± 0.0046
22,APPAHPARSHTP,0.69 ± 0.019
23,APPARGTGRASL,0.738 ± 0.017
24,APPARSTPPPRP,0.712 ± 0.045
25,APPHPPPPLPPP,0.6366 ± 0.0052

row,Sequence,protein stability index
1,APPLPPLFPPSP,0.677 ± 0.047
2,APPLPPPPLDTS,0.729 ± 0.011
3,APPPFLCSPFVA,0.698 ± 0.0092
4,APPPHPRHPTHS,0.777 ± 0.089
5,APPPMPLPLIPL,0.633 ± 0.04
6,APPPPHSSHPPP,0.713 ± 0.027
7,APPPPLLPHPTP,0.736 ± 0.028
8,APPPPPPAPQPP,0.619 ± 0.067
9,APPPPPPSPRVP,0.71 ± 0.047
10,APPQFPLTPPPP,0.647 ± 0.011
11,APPRPPPRPHPP,0.571 ± 0.063
12,APPVAKHHAGKD,0.647 ± 0.016
13,APRPRHFPTLPS,0.812 ± 0.077
14,APRRVAVAGETS,0.707 ± 0.043
15,APSPPPDPATPR,0.672 ± 0.026
16,APSSLLTPPACI,0.734 ± 0.083
17,APSSPRSSTPRP,0.763 ± 0.085
18,APTGGTNVRRPE,0.726 ± 0.024
19,APTPPPPLSPRS,0.69 ± 0.034
20,APTVPQILVRHA,0.6736 ± 0.0047
21,APVGLTFNSSLL,0.7107 ± 0.0032
